Legend:
Assay in all cases: cell-based or functional assay
[1] = target: all targets (endogenous loci tagged homozygously with miniIAA7-mEGFP N- or C-terminally)
[2] = target: seipin tagged with miniIAA7-mEGFP (miniIAA7 = AtIAA7 amino acids 37-104) (human; Arabidopsis thaliana) (UniProt Q96G97)
[3] = target: LBR tagged C-terminally with miniIAA7-mEGFP (human; Arabidopsis thaliana) (UniProt Q14739)
[4] = target: NMIIa (MYH9) tagged N-terminally with miniIAA7-mEGFP (Arabidopsis thaliana; human) (UniProt P35579)
[5] = target: Non-nuclear targets expressed at low levels (seipin, NPC1, PEX3 and Glut1), tagged with miniIAA7-mEGFP
[6] = target: seipin tagged with miniAID-mEGFP (miniAID = AtIAA17 amino acid residues 68-132) (human; Arabidopsis thaliana) (UniProt Q96G97)

B1: TIR1 derived from Oryza sativa (OsTIR1) (receptor, UniProt Q7XVM8 1-575, looked up)
chain: MTYFPEEVVEHIFSFLPAQRDRNTVSLVCKVWYEIERLSRRGVFVGNCYAVRAGRVAARFPNVRALTVKGKPHFADFNLVPPDWGGYAGPWIEAAARGCHGLEELRMKRMVVSDESLELLARSFPRFRALVLISCEGFSTDGLAAVASHCKLLRELDLQENEVEDRGPRWLSCFPDSCTSLVSLNFACIKGEVNAGSLERLVSRSPNLRSLRLNRSVSVDTLAKILLRTPNLEDLGTGNLTDDFQTESYFKLTSALEKCKMLRSLSGFWDASPVCLSFIYPLCAQLTGLNLSYAPTLDASDLTKMISRCVKLQRLWVLDCISDKGLQVVASSCKDLQELRVFPSDFYVAGYSAVTEEGLVAVSLGCPKLNSLLYFCHQMTNAALVTVAKNCPNFTRFRLCILEPGKPDVVTSQPLDEGFGAIVRECKGLQRLSISGLLTDKVFMYIGKYAKQLEMLSIAFAGDSDKGMMHVMNGCKNLRKLEIRDSPFGDAALLGNFARYETMRSLWMSSCNVTLKGCQVLASKMPMLNVEVINERDGSNEMEENHGDLPKVEKLYVYRTTAGARDDAPNFVKIL
basal degradation at 0 h IAA, FACS of GFP [1]: 12 to 37% | depletion efficiency at 16 h IAA, FACS of GFP [1]: 2 to 7%

B2: Arabidopsis thaliana AFB2 (AtAFB2), auxin perceptive F-box protein, tagged with mCherry (receptor, not shown: large carriers)
chain: MNYFPDEVIEHVFDFVTSHKDRNAISLVCKSWYKIERYSRQKVFIGNCYAINPERLLRRFPCLKSLTLKGKPHFADFNLVPHEWGGFVLPWIEALARSRVGLEELRLKRMVVTDESLELLSRSFVNFKSLVLVSCEGFTTDGLASIAANCRHLRDLDLQENEIDDHRGQWLSCFPDTCTTLVTLNFACLEGETNLVALERLVARSPNLKSLKLNRAVPLDALARLMACAPQIVDLGVGSYENDPDSESYLKLMAVIKKCTSLRSLSGFLEAAPHCLSAFHPICHNLTSLNLSYAAEIHGSHLIKLIQHCKKLQRLWILDSIGDKGLEVVASTCKELQELRVFPSDLLGGGNTAVTEEGLVAISAGCPKLHSILYFCQQMTNAALVTVAKNCPNFIRFRLCILEPNKPDHVTSQPLDEGFGAIVKACKSLRRLSLSGLLTDQVFLYIGMYANQLEMLSIAFAGDTDKGMLYVLNGCKKMKKLEIRDSPFGDTALLADVSKYETMRSLWMSSCEVTLSGCKRLAEKAPWLNVEIINENDNNRMEENGHEGRQKVDKLYLYRTVVGTRMDAPPFVWILGGSGG
target protein level at 0 h IAA (basal degradation), FACS of GFP (% levels of control) [1]: 86 to 109 | target protein level at 16 h IAA, FACS of GFP [1]: 2 to 5 % levels | auxin-inducible protein reduction at 1 h IAA, FACS of GFP, compared to miniAID [2]: 3 fold | target protein level at 1 h IAA, FACS of GFP [3]: < 12% | target protein level at 1 h IAA, FACS of GFP [4]: < 12% | target protein level at 1 h IAA, FACS of GFP [5]: 2 to 5% | target protein level before IAA addition (0 h IAA), FACS of GFP, compared to OsTIR1 [6]: 5 fold
